# Assay results as given in paper PMC5467235, “Variation in auxin sensing guides AUX/IAA transcriptional repressor ubiquitylation and destruction” (Nature Communications, 2017).
# B1: GST-IAA6 [Arabidopsis thaliana] / ASK1-TIR1 protein complex [Arabidopsis thaliana] (parent)
# chain 1: MAKEGLALEITELRLGLPGDNYSEISVCGSSKKKKRVLSDMMTSSALDTENENSVVSSVEDESLPVVKSQAVGWPPVCSYRRKKNNEEASKAIGYVKVSMDGVPYMRKIDLGSSNSYINLVTVLENLFGCLGIGVAKEGKKCEYIIIYEDKDRDWMLVGDVPWQMFKESCKRLRIVKRSDATGFGLQQD
# chain 2: MQKRIALSFPEEVLEHVFSFIQLDKDRNSVSLVCKSWYEIERWCRRKVFIGNCYAVSPATVIRRFPKVRSVELKGKPHFADFNLVPDGWGGYVYPWIEAMSSSYTWLEEIRLKRMVVTDDCLELIAKSFKNFKVLVLSSCEGFSTDGLAAIAATCRNLKELDLRESDVDDVSGHWLSHFPDTYTSLVSLNISCLASEVSFSALERLVTRCPNLKSLKLNRAVPLEKLATLLQRAPQLEELGTGGYTAEVRPDVYSGLSVALSGCKELRCLSGFWDAVPAYLPAVYSVCSRLTTLNLSYATVQSYDLVKLLCQCPKLQRLWVLDYIEDAGLEVLASTCKDLRELRVFPSEPFVMEPNVALTEQGLVSVSMGCPKLESVLYFCRQMTNAALITIARNRPNMTRFRLCIIEPKAPDYLTLEPLDIGFGAIVEHCKDLRRLSLSGLLTDKVFEYIGTYAKKMEMLSVAFAGDSDLGMHHVLSGCDSLRKLEIRDCPFGDKALLANASKLETMRSLWMSSCSVSFGACKLLGQKMPKLNVEVIDERGAPDSRPESCPVERVFIYRTVAGPRFDMPGFVWNMDQDSTMRFSRQIITTNGL
# chain 3: MSAKKIVLKSSDGESFEVEEAVALESQTIAHMVEDDCVDNGVPLPNVTSKILAKVIEYCKRHVEAAASKAEAVEGAATSDDDLKAWDADFMKIDQATLFELILAANYLNIKNLLDLTCQTVADMIKGKTPEEIRTTFNIKNDFTPEEEEEVRRENQWAFE
# Variants of: B1
# Assay: one-point saturation binding assay with [3H]IAA (radioligand binding)
# Conditions: 200 nM [3H]IAA, read off a plot
row,Variant,response [c.p.m.]
1,chain 1 C78R,3100
